Test results taken from PMC3415446.

Columns and labels:
[1] = molecular target: NDV Ulster HN NA domain (residues 124-616), containing the C-terminal extension (Newcastle disease virus (NDV), strain Ulster); assay: SEC
[2] = molecular target: NDV Ulster HN NA domain (residues 124-616), containing the C-terminal extension (Newcastle disease virus (NDV), strain Ulster); assay: negative-stain electron microscopy
[3] = molecular target: NDV Ulster HN NA domain (residues 124-616), containing the C-terminal extension (Newcastle disease virus (NDV), strain Ulster); assay: SDS-PAGE under non-reducing conditions
[4] = molecular target: NDV Ulster HN NA domain (residues 124-616), containing the C-terminal extension (Newcastle disease virus (NDV), strain Ulster); assay: sucrose density gradient sedimentation
[5] = molecular target: NDV Ulster HN ectodomain (residues 49-616) (Newcastle disease virus (NDV), strain Ulster); assay: SDS-PAGE under non-reducing conditions
[6] = molecular target: NDV Ulster HN ectodomain (residues 49-616) (Newcastle disease virus (NDV), strain Ulster); assay: not stated; ectodomain in solution; method not given

Measured: stoichiometry N

NDV Ulster HN NA domain (residues 124-616), containing the C-terminal extension (domain or fragment)
2: [1] | [2] | [3] | [4]

NDV Ulster HN ectodomain (residues 49-616) (domain or fragment)
2: [5] | [6]
